Experimental data reported in patent publication US20250011363A1, “OPTIMIZED SHORTENED PEPTIDE THAT BINDS TO ACETYLCHOLINE RECEPTOR, AND USE THEREOF” (SKINMED CO., LTD., priority 2021, published 2025).

molecular target: acetylcholine receptor; test: SPR, AchR immobilised on chip, peptide at 10 uM

Point of comparison: KVRYKK [6mer-2-295], Binding affinity 145 RU. Against it:
- KWYRRK [6mer-2-296] — lower, 135 RU
- KQICKK [6mer-2-302] — higher, 148 RU
- RGIQKK [6mer-2-318] — the same, 145 RU
- RVYTKR [6mer-2-329] — lower, 142 RU
- RRIQRR [6mer-2-285] — lower, 142 RU
- KQQSKR [6mer-2-293] — higher, 153 RU
- KQFYKK [6mer-2-305] — higher, 154 RU
- KGLRKR [6mer-2-327] — higher, 153 RU
- KGQRKK [6mer-2-281] — higher, 149 RU
- KSLQRK [6mer-2-279] — higher, 148 RU
- KRRRRR [6mer-2-309] — higher, 151 RU
- RQVRKR [6mer-2-301] — lower, 122 RU
- KVVTRK [6mer-2-311] — higher, 147 RU
- KWFYRK [6mer-2-304] — lower, 144 RU
- RQYRRK [6mer-2-320] — higher, 148 RU
- KLFQRK [6mer-2-310] — higher, 149 RU
- RLLQKK [6mer-2-289] — higher, 146 RU
- RWYYRK [6mer-2-299] — lower, 141 RU
- RQLCKR [6mer-2-292] — lower, 121 RU
- KSRLRK [6mer-2-288] — lower, 122 RU
- RWRTKR [6mer-2-313] — higher, 154 RU
- KQYCKK [6mer-2-314] — lower, 127 RU
- KSIYRR [6mer-2-280] — higher, 153 RU
- KQLRKK [6mer-2-330] — lower, 139 RU
- RLVCRK [6mer-2-276] — higher, 153 RU
- KLRQRR [6mer-2-273] — lower, 131 RU
- KWVQRK [6mer-2-269] — lower, 123 RU
- KWRTKR [6mer-2-312] — lower, 121 RU
- KWICKK [6mer-2-298] — higher, 149 RU
- KLISKR [6mer-2-283] — higher, 148 RU
- RRYRKR [6mer-2-291] — higher, 154 RU
- KLYYRR [6mer-2-294] — lower, 135 RU
- RLRSKK [6mer-2-307] — lower, 141 RU
- KRYQRK [6mer-2-328] — lower, 131 RU
- RRQRRR [6mer-2-315] — lower, 139 RU
- RGLYKR [6mer-2-317] — lower, 135 RU
- KVLLRK [6mer-2-323] — the same, 145 RU
- KLVSRK [6mer-2-321] — lower, 139 RU
- KLRSKR [6mer-2-284] — higher, 151 RU
- KLQSRK [6mer-2-324] — lower, 139 RU
- KVFTKR [6mer-2-303] — lower, 126 RU
- RQLYRK [6mer-2-290] — lower, 135 RU
- KGIRRR [6mer-2-316] — lower, 139 RU
- RQFQKR [6mer-2-306] — lower, 141 RU
- RLRYRK [6mer-2-277] — lower, 128 RU
- KWRSRK [6mer-2-272] — higher, 154 RU
- KSRLRR [6mer-2-270] — higher, 148 RU
- RSLSRR [6mer-2-297] — lower, 139 RU
- RQQYRK [6mer-2-282] — higher, 151 RU
- RQIQKK [6mer-2-278] — lower, 135 RU
- RVFSRK [6mer-2-325] — lower, 142 RU
- KLITRR [6mer-2-275] — lower, 135 RU
- RLFQKK [6mer-2-271] — lower, 131 RU
- RGFYKK [6mer-2-326] — lower, 142 RU
- KGISKR [6mer-2-308] — higher, 148 RU
- RLYLKR [6mer-2-287] — lower, 124 RU
- RSRQRK [6mer-2-319] — lower, 137 RU
- KRRYKK [6mer-2-286] — lower, 139 RU
- KLRTKR [6mer-2-274] — higher, 148 RU
- RRYSRR [6mer-2-322] — higher, 148 RU
- RWRLKK [6mer-2-300] — higher, 153 RU

molecular target: acetylcholine receptor; test: SPR, AchR immobilised on CM5 chip, peptide at 10 uM

Point of comparison: RRGFYR [6mer-1-460], Binding affinity (RU) 148 RU. Against it:
- RRVFYK [6mer-1-455] — lower, 126 RU
- KRSFRK [6mer-1-463] — higher, 153 RU
- RKGQLK [6mer-1-1458] — lower, 139 RU
- KRGYQK [6mer-1-467] — lower, 121 RU
- RKVLRR [6mer-1-454] — lower, 124 RU
- RRWVYK [6mer-1-459] — lower, 131 RU
- RRQRLK [6mer-1-464] — lower, 131 RU
- KRSICR [6mer-1-466] — the same, 148 RU
- KRLYTR [6mer-1-452] — lower, 141 RU
- RRGYTR [6mer-1-461] — lower, 142 RU
- RKVRLR [6mer-1-451] — higher, 153 RU
- KKWQQK [6mer-1-453] — higher, 154 RU
- RKLLCR [6mer-1-457] — lower, 121 RU
- RKQILK [6mer-1-462] — lower, 126 RU
- RRGQYR [6mer-1-456] — higher, 153 RU
- RKQVYK [6mer-1-465] — higher, 154 RU
